Experimental data: patent publication US20060003931A1

How the values were obtained:
[1] = target: Met-IgG fusion protein (Homo sapiens (Human)) (UniProt P08581); test: HGF β/Met-IgG competition ELISA; tracer 250 nM biotinylated wildtype HGF β
[2] = target: Met-IgG fusion protein (Homo sapiens (Human)) (UniProt P08581); test: HGF β/Met-IgG competition ELISA; tracer biotinylated HGF β

Chain of UniProt P08581 (P08581 25-930 limits assumed, form in doubt): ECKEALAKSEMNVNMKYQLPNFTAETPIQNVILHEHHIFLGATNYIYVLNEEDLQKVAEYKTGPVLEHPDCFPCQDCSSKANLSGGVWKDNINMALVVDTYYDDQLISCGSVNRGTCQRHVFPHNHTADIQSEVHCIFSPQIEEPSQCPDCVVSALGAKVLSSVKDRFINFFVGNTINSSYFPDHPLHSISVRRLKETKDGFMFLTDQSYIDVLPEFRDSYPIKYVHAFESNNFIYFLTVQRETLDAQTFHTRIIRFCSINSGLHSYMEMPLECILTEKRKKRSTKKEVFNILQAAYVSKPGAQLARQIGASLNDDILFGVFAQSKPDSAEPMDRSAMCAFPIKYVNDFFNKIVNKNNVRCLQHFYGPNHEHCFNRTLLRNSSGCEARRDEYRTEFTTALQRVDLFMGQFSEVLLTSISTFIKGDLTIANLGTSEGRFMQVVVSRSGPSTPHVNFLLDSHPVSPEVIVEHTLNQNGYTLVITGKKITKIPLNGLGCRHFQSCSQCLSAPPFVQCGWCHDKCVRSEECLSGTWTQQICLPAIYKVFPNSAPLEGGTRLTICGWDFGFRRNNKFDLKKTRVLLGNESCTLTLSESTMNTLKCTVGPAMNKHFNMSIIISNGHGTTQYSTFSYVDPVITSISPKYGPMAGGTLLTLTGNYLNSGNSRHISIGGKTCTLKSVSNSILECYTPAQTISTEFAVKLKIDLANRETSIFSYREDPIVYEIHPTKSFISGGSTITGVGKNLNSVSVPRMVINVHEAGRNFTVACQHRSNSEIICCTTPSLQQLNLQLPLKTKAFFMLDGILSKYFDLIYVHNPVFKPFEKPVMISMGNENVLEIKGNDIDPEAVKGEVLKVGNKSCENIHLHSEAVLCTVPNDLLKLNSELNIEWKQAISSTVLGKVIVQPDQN

IC50 [1]: 11.6 µM
fold reduced binding against HGF β [1]: 13.5 fold
relative IC50 (normalized to HGF β) (relative to HGF β) [2]: 21
Substance: proHGF β (HGF residues Asn479 to Ser728 with R494E) (from UniProt P14210 479-728) (ligand)
